T1: mouse GITR extracellular domain (mouse, UniProt O35714 20-153)
T1 construct: extracellular domain; also called murine GITR; rodent GITR
T1 sequence (looked up): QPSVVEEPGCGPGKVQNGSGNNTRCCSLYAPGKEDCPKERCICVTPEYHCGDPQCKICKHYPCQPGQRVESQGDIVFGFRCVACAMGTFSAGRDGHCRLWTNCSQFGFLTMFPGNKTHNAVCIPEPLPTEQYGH

T2: human GITR expressed on cells (human, UniProt Q9Y5U5 27-241)
T2 sequence: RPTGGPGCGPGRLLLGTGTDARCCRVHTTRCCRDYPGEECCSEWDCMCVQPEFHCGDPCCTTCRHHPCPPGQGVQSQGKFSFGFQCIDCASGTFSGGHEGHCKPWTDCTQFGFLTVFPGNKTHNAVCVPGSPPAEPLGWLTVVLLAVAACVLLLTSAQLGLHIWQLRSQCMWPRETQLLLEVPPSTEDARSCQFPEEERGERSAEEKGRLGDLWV


What was measured:
[1] = molecular target: cyno GITR (cGITR), form not stated (cynomolgus monkey); test: Biacore (SPR)
[2] = molecular target: T1, mouse GITR extracellular domain; test: ELISA on coated GITR ECD
Protocol: The plate was blocked with a solution of 1% BSA in PBS for one hour at room temperature and then rinsed three times with PBST. The MAB was then diluted to 0.5 μg/mL or 1 μg/mL in PBS and 20 μL was added to each well. The plate was incubated for 1 hour at room temperature and then washed three times with PBST. […] The plate was incubated for 1 hour at room temperature, and then washed six times with PBST. 25 μL of SureBlue TMB (KPL 52-00-02) substrate was added to each well and the plate was incubated for about 10 min at room temperature.

[3] = molecular target: T2, human GITR expressed on cells; test: cell-based or functional assay

Row | Binder | fold lower binding affinity for cyno GITR than for human GITR [1] | binding result [2] | EC50, NFκB-luciferase reporter in 293 cells overexpressing human GITR, antibody cross-linked [3]
1 | MAB4 (IgG1 kappa) (antibody, V domains shown) VH: EVQLVESGGGLVQSGGSLRLSCAASGFSLSSYGVDWVRQAPGKGLEWVGVIWGGGGTYYASSLMGRFTISRDNSKNTLYLQMNSLRAEDTAVYYCAKHAYGHDGGFAMDYWGQGTLVTVSS VL: EIVMTQSPATLSVSPGERATLSCRASESVSSNVAWYQQRPGQAPRLLIYGASNRATGIPARFSGSGSGTDFTLTISRLEPEDFAVYYCGQSYSYPFTFGQGTKLEIKR | 2 to 3 fold | no binding (tested: not on the sheet; paragraph 336: 0.5 or 1 µg/mL) | ~2.5 nM
2 | MAB5 (IgG1 kappa) (antibody, V domains shown, also called MABS (misprint of MAB5)) VH: EVQLVESGGGLVQSGGSLRLSCAASGFSLSSYGVDWVRQAPGKGLEWLGVIWGGGGTYYTSSLMGRFTISRDNSKNTLYLQMNSLRAEDTAVYYCAKHAYGHDGGFAMDYWGQGTLVTVSS VL: EIVMTQSPATLSVSPGERATLSCRASESVSSNVAWYQQRPGQAPRLLIYGASNRATGIPARFSGSGSGTDFTLTISRLEPEDFAVYYCGQSYSYPFTFGQGTKLEIKR | 2 to 3 fold | no binding (tested: not on the sheet; paragraph 336: 0.5 or 1 µg/mL) | ~2.5 nM

Source: US20170306037A1 (Novartis, published 2017)
